In patent publication US20200000897A1 (published 2020):

biological target: T1, HLA-A*03:01 (human); assay: UV-ligand exchange, anti-b2m ELISA; peptide exchange yield grade (>10% +, >20% ++, >50% +++, >75% ++++)
T1 construct: MHC class I monomer first loaded with a UV-sensitive peptide that is cleaved by UV irradiation and exchanged for the test peptide; captured on streptavidin plates; also called peptide-receptive MHC molecules
How it was run: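 HLA-A*03:01 complexes were formed by UV-induced exchange of a photocleavable peptide for the test peptide. Exchange yield was measured by ELISA: streptavidin capture of 100-fold diluted monomers, HRP-anti-β2m detection, TMB read at 450 nm, quantified against HLA-A*02:01 monomer standards (15–500 ng/ml) and graded by % yield.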

Row | peptide exchange yield [%] | Binder
1 | 10 to 20 | SLFPYYNNLY
2 | > 75 | VTAVASLLK
3 | > 75 | VLYRPQLEK
4 | 50 to 75 | VVTGNVPLK
5 | 50 to 75 | RTIEELQNK
6 | > 75 | SIFGLAPGK
7 | 50 to 75 | VLYELGIIGNNK
8 | > 75 | SSFRPLLSK
9 | 50 to 75 | RVLYRPQLEK
10 | > 75 | TVYDSIWCNMK
11 | > 75 | RVCMTVDSLVNK
12 | 50 to 75 | RVKEIVINK
13 | > 75 | STLECILYK
14 | 50 to 75 | VVREILHAQTLK
15 | 20 to 50 | VLLLLSLLH
16 | 50 to 75 | VTADGALAMEK
17 | > 75 | SVLSRMLVR
18 | 50 to 75 | VVFPFPVNKR
19 | 50 to 75 | TTYYPSPLNK
20 | > 75 | SGSTLECILYK
21 | > 75 | SLYDSEPRKK

Further lines, the binder ahead of its results:

Row | Binder | peptide exchange yield [%]
22 | GIFPKIMPK | > 75
23 | ALNDRFAGY | 50 to 75
24 | EVILTTKTPK | 20 to 50
25 | KINQYIIKK | 50 to 75
26 | ALFGNALVFY | > 75
27 | RLSAESKDLLK | 50 to 75
28 | RLGAARGQLR | 20 to 50
29 | FSNNHPSTPK | 50 to 75
30 | LLDAEPPILY | 10 to 20
31 | KGPMAGILAY | 20 to 50
32 | ITAPLMPLGK | > 75
33 | GMYEYGSIEK | > 75
34 | HAFFPKTHR | > 75
35 | HAFPPGPNY | 10 to 20
36 | KLLEDMVEK | 20 to 50
37 | KLETGVVKK | > 75
38 | QIRAELMKK | > 75

Row | Binder | peptide exchange yield [%]
39 | QLGYQAAVLK | 50 to 75
40 | LLYGNGPGYVLK | > 75
41 | HVLYPVPLESY | 50 to 75
42 | KCYEVGMMK | > 75
43 | KQALSLVRK | 50 to 75
44 | HSAGIFSMY | 20 to 50
45 | KGWNGQIFK | 50 to 75
46 | GLSTILLYH | > 75
47 | KTWAHCMSY | > 75
48 | KVLSILSRLK | 50 to 75
49 | GVTITKTLK | 50 to 75
50 | RLVELAGQSLLK | > 75
51 | KTQFPQLK | 20 to 50
52 | KLYPQCLQK | > 75
53 | ILDSSLLK | 20 to 50
54 | AIGTPLIGK | 50 to 75
